This is an account of results in US20100095387A1, “METHODS AND REAGENTS FOR SCREENING NEW DRUGS AND FOR TREATING ION PUMP ASSOCIATED DISORDERS AND DISEASES” (priority 2005, published 2010).

The target in experiment [1] is T1, α3Na+/K+-ATPase (Mus musculus, UniProt Q6PIC6). Kind of experiment: Whole cell current clamp of cultured cortical neurons, channel blockers present. The settings on record: fragment alone. The class given is cell-based.
The test system of another experiment is cardiac myocytes. In words: Spontaneous contraction frequency of cultured cardiac myocytes. The settings on record: Agrn+/− and Agrn−/− myocytes grown in fragment; listed as C-Ag208. The class given is cell-based, mouse. As to the method: FIG. 17. Cardiac myocyte contraction is agrin dependent. Cardiac myocytes were prepared from hearts of individual embryos produced by heterozygous pairings. The genotype of cultures was determined by PCR analysis of tissue samples from each embryo. Myocytes were maintained in 199 medium containing 10% FCS as described (Mitcheson et al., 1998). At 5 days in culture, the frequency of spontaneous contractions was determined by counting contractions in myocytes from 5 random fields at 300× magnification for 30 seconds. Contraction frequency is dependent on Agrn gene dosage such that Agrn−/−>Agrn+/−>Agrn+/+. Addition of C-Ag208 to the growth medium rescues the Agrn mutant phenotype whereas C-Ag15 increased the contraction frequency of wild type myocytes to a level similar to Agrn−/− cells. Bars show mean±SEM for a minimum of 2 independent platings from 3 embryos, except for Agrn+/−treated with C-Ag208, which was a single plating of 2 embryos. All data were collected blind with respect to genotype and agrin treatment. *** p≦0.001. ANOVA with Bonferroni post-hoc pair-wise comparison.
Quantitative studies confirmed and extended these observations by showing that the frequency of myocyte contraction is dependent on agrin gene dose: Agrn−/− myocyte contraction frequency is about 2-fold higher and Agrn+/− 1.5-fold higher than Agrn+/+ myocytes (FIG. 17). To learn whether the effect of the Agrn mutation on myocyte contraction is a direct result of the loss of agrin expression the effects of growing the cells in media supplemented with C-Ag208, an active agrin fragment, or C-Ag15, the agrin antagonist was next examined.

In experiment [2] the target is T1, α3Na+/K+-ATPase. In words: Na+ imaging (SBFI-AM) of cultured cortical cells. It is filed as cell-based.
In experiment [3] the target is T2, α3 subunit of the Na+/K+-ATPase (Mus musculus, UniProt Q6PIC6).
T2 construct: a 110 kDa band characteristic of the native α3Na+/K+-ATPase; endogenous in cells; host or cells: primary mouse cortical neurons, 10-16 days in culture
In words: Chemical cross-linking of agrin fragments to cortical neurons, immunoprecipitation and immunoblot. It is filed as binding. Conditions: immunoprecipitation with phosphotyrosine antibody mAb4G10. As to the method:
Membrane impermeant chemical cross-linking agents BS^3 and DMA were used to stabilize the bond between agrin and its binding sites on cell surface membranes. Cultured neurons were washed briefly in PBS containing 10 mM EDTA followed by preincubation with one or more agrin fragment in PBS^2+ for 30 minutes at room temperature and then cooled on ice prior to addition of a 10× solution of cross-linking agent to a final concentration of 0.1 mM. The cross-linking reaction was allowed to proceed for 30 minutes after which any unreacted cross-linker was quenched and removed by washing with ice cold PBS^2+ containing 50 mM ethanolamine. For immunoblot analysis, cells were scraped into ice-cold TI buffer (20 mM Tris, pH 7.4; 10 mM EDTA; protease inhibitors (Sigma, P8340)) then Dounce homogenized and membrane fraction recovered by centrifugation. For the immunoprecipitation studies, cells were scraped and homogenized in TI buffer containing 150 mM NaCl and 0.5% Triton X-100. Cell extracts were cleared by centrifugation and aliquots of the detergent soluble fraction incubated with the appropriate antibody at 4° C. overnight. Antigen-antibody complexes were precipitated with either protein A or protein G and resuspended in SDS-PAGE sample buffer for immunoblot analysis.
Ligand induced phosphorylation is a common first step in membrane receptor activation and inhibition of tyrosine kinase activity blocks agrin signalling in central nervous system neurons. To determine if agrin induced phosphorylation of the putative agrin receptor, membranes from neurons cross-linked to C-Ag208 or C-Ag15, alone or in combination, were dissolved, in a detergent-containing buffer and aliquots immunoprecipitated with RAg1 or the phosphotyrosine antibody mAb4G10 (Upstate). Immunoprecipitated proteins were analyzed by immunoblotting with a monoclonal antibody (9E10.2, Invitrogen) against the COON-terminal myc tag on the agrin fragments.
To confirm the results of the mass spectrometry the ability of different α-subunit antibodies to recognize the putative agrin-Na^+/K^+-ATPase complex was tested. […]

Experiment [4] relates to layer V neurons in acute cortical slices. Kind of experiment: Whole cell current clamp of layer V neurons in acute cortical slices. The class given is cell-based, mouse.
The test system of experiment [5] is cultured cortical neurons. Kind of experiment: Firing properties of cultured cortical neurons in normal external solution. The class given is cell-based, mouse. Conditions: normal external solution.
The target of the next experiment is agrin receptors (Mus musculus, UniProt Q6PIC6). In words: Agrin receptor immunohistochemistry, binding of short agrin fragments to live cortical neurons. As to the method: The distribution of agrin receptors was studied using agrin deletion fragments as affinity probes. Neurons, plated on glass coverslips, were washed briefly (1-2 min) in cold PBS containing 10 mM EDTA followed by a second wash in cold PBS alone before incubation for 15 min at 4° C. with 1 pM recombinant mouse agrin in NBM. In some experiments, labeling with mouse agrin was performed in the presence of various concentrations of rat rC-Ag95y4z8 or rC-Agy0z0. Control cultures were treated with vector control protein or an equivalent volume of vehicle in which the recombinant agrin was dissolved. Cells were then washed in cold NBM, fixed for 40 min on ice in 4% PFA in PBS, then washed in PBS and blocked for 1 h in PBSB. Recombinant agrin was detected through the COOH-terminal 6× polyhistidine tag using an anti-his antibody (1:500; Invitrogen). In experiments where cells were double labeled for synaptophysin, the anti-synaptophysin:antiserum (1:400) was also added at this step. Incubations were performed overnight at 4° C. in PBSB, followed by labeling with fluorescein conjugated goat anti-mouse and Texas red labeled anti-rabbit antibodies as described in the previous paragraphs. In some experiments, the amount of mouse agrin bound was estimated by digital photomicrography using the public domain NIH Image program (http://rsb.info.nih.gov/nih-image/).

“Also recorded” adds a separate entry of the source.

B1: C-Ag20z8: C-Ag20 isoform having the z8 splice variant, SEQ. ID NO. 2 (protein)
chain: MDPRTYIEYLNAVTESELTNEIPAEKALQSNHFELTLRTEATQGWLVLWIGKAAERADYMALAIVDGHLQLSYDLASQPVVLRSTVKVNTNRWLRVRAHREHREGSLQVGNEAPVTSSSPLGATQLDTDGALWLGGLQKLPVGQPLPKAYGTGFVGCLRNVVGHRQLHLLEDAVTKPELRPCPTLNSKLGPEQKLISEEDLNSAVDHHHHHH
modifications: Synthetically produced sequence
For B1, the “effect on neuron membrane potential” value with α3Na+/K+-ATPase [1] is “rapid and reversible depolarization”. In the experiment on cardiac myocytes, the contraction frequency result is “significant decrease; also recorded: rescues”. In the experiment with α3Na+/K+-ATPase [2] (fragment or ouabain alone, neurons), the “neuronal intracellular Na+” value is “rapid increase”. Besides, the “intracellular Na+ in non-neuronal cells” value in the experiment with α3Na+/K+-ATPase [2] (non-neuronal cells) was “unaffected”. For the same molecule, the “tyrosine phosphorylation of the cross-linked complex” value in experiment [3] is “phosphorylated”.

B2: C-Ag20z0: C-Ag20 isoform having the z0 splice variant, SEQ. ID NO. 1 (protein)
chain: MDPRTYIEYLNAVTESEKALQSNHFELTLRTEATQGWLVLWIGKAAERADYMALAIVDGHLQLSYDLASQPVVLRSTVKVNTNRWLRVRAHREHREGSLQVGNEAPVTSSSPLGATQLDTDGALWLGGLQKLPVGQPLPKAYGTGFVGCLRNVVGHRQLHLLEDAVTKPELRPCPTLNSKLGPEQKLISEEDLNSAVDHHHHHH
modifications: Synthetically produced sequence
B2: the “effect on neuron membrane potential” value with α3Na+/K+-ATPase [1] is “rapid and reversible depolarization”. Also, in experiment [4] (bath application of fragment alone), the action potentials entry is listed as “appearance of high frequency action potentials”. Moreover, the membrane depolarization in experiment [4] (bath application, slices from 6-11 day-old mice) is 9.6±2.22 mV. Further, the membrane potential result in experiment [5] is reported as “rapidly depolarized”.

B3: rC-Agy4z8: soluble 95-kD COOH-terminal fragment of rat agrin, active "neural" isoform (protein)
chain: AATGTTAAMATARATTVSRLPASSVTPRVYPSHTSRPVGRTTAPPTTRRPPTTATNMDRPRTPGHQQPSKSCDSQPCLHGGTCQDQDSGKGFTCSCTAGRGGSVCEKVQPPSMPAFKGHSFLAFPTLRAYHTLRLALEFRALETEGLLLYNGNARGKDFLALALLDGRVQFRFDTGSGPAVLTSLVPVEPGRWHRLELSRHWRQGTLSVDGETPVVGESPSGTDGLNLDTNLYVGGIPEEQVAMVLDRTSVGVGLKGCIRMLDINNQQLELSDWQRAAVQSSGVGECGDHPCLPNPCHGGALCQALEAGMFLCQCPPGRFGPTCADEKSPCQPNPCHGAAPCRVLSSGGAKCECPLGRSGTFCQTVLETAGSRPFLADFNGFSYLELKGLHTFERDLGEKMALEMVFLARGPSGLLLYNGQKTDGKGDFVSLALHNRHLEFCYDLGKGAAVIRSKEPIALGTWVRVFLERNGRKGALQVGDGPRVLGESPKSRKVPHTMLNLKEPLYIGGAPDFSKLARGAAVSSGFSGVIQLVSLRGHQLLTQEHVLRAVDVSPFADHPCTQALGNPCLNGGSCVPREATYECLCPGGFSGLHCEKGLVEKSVGDLETLAFDGRTYIEYLNAVIESPETLDSRALFSEKALQSNHFELSLRTEATQGLVLWIGKAAERADYMALAIVDGHLQLSYDLGSQPVVLRSTVKVNTNRWLRIRAHREHREGSLQVGNEAPVTGSSPLGATQLDTDGALWLGGLQKLPVGQALPKAYGTGFVGCLRDVVVGHRQLHLLEDAVTKPELRPCPTP
Consider B3, for which the C-Ag20z8 labeling entry with agrin receptors (1:100 molar ratio of C-Ag20z8 to rC-Agy4z8) was “barely detectable”. Moreover, the “binding of C-Ag20z8, C-Ag20z0 and C-Ag15” value with agrin receptors (large (500-fold molar) excess of rat agrin) was “completely blocked”.
